Data: article PMC2674928, “The SARS-Unique Domain (SUD) of SARS Coronavirus Contains Two Macrodomains That Bind G-Quadruplexes”

Legend:
[1] = biological target: SUD_(core), the core of the SARS-unique domain (Nsp3 residues 389-652) of SARS coronavirus (SARS coronavirus (strain TOR2)); assay: crystal structure
[2] = biological target: full-length SUD (Nsp3c) (SARS coronavirus strain TOR2, UniProt P0C6U8 1207-1544); assay: ZIGE (gel shift); 100 mM KCl; details: protein: recombinant; tags: N-terminal His-tag, factor Xa site linker; G4
[3] = biological target: SUDcore (SUDc5b) (SARS coronavirus strain TOR2, UniProt P0C6U8 1207-1470); assay: ZIGE (gel shift); 100 mM KCl; details: protein: recombinant; tags: N-terminal His-tag, factor Xa site linker; chain copies: 2; G4
[4] = biological target: SUD-M (SARS coronavirus strain TOR2, UniProt P0C6U8 1343-1470); assay: ZIGE (gel shift); details: protein: recombinant; tags: N-terminal His-tag, factor Xa site linker; G4 (oligo(G) known to form quadruplexes)
[5] = biological target: SUD-N (SARS coronavirus strain TOR2, UniProt P0C6U8 1207-1342); assay: ZIGE (gel shift); details: protein: recombinant; tags: N-terminal His-tag, factor Xa site linker; G4 (oligo(G) known to form quadruplexes)

Molecule	binding result [2]	binding result [3]	other results
SUD_(core), the core of the SARS-unique domain (Nsp3 residues 389-652) of SARS coronavirus (domain or fragment)	–	–	stoichiometry N [1]: 2
UGGGGGGAGGGAGGGAGGGA (structured_RNA) [elastin 3'-NTR RNA G4]	binds	binds	–
GGGCGCGGGAGGAATTGGGCGGG (structured_DNA) [Bcl-2 promoter G4]	binds	binds	–
GGGGGGGGGG (structured_DNA) [(dG)10]	–	–	binding result [4]: binds; binding result [5]: binds
UGGGGU (structured_RNA) [UG4U]	–	binds	–
